Each block holds one binder with its values, some of them ahead of it. Where no end group is shown, it is not given here. The star is where a group is joined. Biotin = O=C1N[C@H]2[C@H](CS[C@H]2CCCCC(=O)*)N1; Ahx = NCCCCCC(=O)O
How the values were obtained:
[1] = target: T1, 1-15aa; experiment: indirect ELISA on biotinylated 15-mer peptide (streptavidin plate), supernatant 1/100
T1 construct: also called alpha-synuclein peptide 1-15
T1 peptide: {Biotin-Ahx}-MDVFMKGLSKAKEGV
Experimental: (§1) Epitope mapping for the antibodies derived from stable hybridoma clones was determined using an indirect ELISA on a library of 15-mer peptides covering the entire sequence of human alpha-synuclein from 1 to 140aa. […] Results are expressed as optical density (O.D.). Each bar represents data for an individual antibody.
(§2) Serum-free supernatants were harvested from stable hybridomas. The supernatants containing antibodies of interest were then screened by an indirect ELISA assay to determine epitopes. Epitopes were first determined using a library of 15-mer peptides covering the entire sequence of human alpha-synuclein protein, spanning amino acids (aa) 1-140 with 9aa offset and 6aa overlap. […] Briefly, streptavidin-coated ELISA plates were blocked overnight at 4° C. […] Plates were washed with PBS/0.05% Tween® 20 and then incubated with the hybridoma supernatants at 1/100 dilution for 1 hour at 25° C. […] After final wash, plates were incubated 2 hours at 25° C. with alkaline phosphatase substrate (p-nitrophenyl phosphate disodium hexahydrate; pNPP, S0942, Sigma) and read the absorbance optical density (O.D.) signal at 405 nm using an ELISA plate reader (Tecan, Switzerland).

[2] = target: 28-42aa; experiment: 15-mer peptide ELISA
Experimental: as §1, §2

[3] = target: T2, 37-51aa; experiment: 15-mer peptide ELISA
T2 construct: also called alpha-synuclein peptide 37-51
T2 peptide: {Biotin-Ahx}-VLYVGSKTKEGVVHG
Experimental: as §1, §2

[4] = target: alpha-synuclein fibrils (Homo sapiens (Human), UniProt P37840 1-140); experiment: SPR, mAb captured
Experimental: (§3) Immobilization levels were evaluated following ethanolamine capping (Bound) and finally following regeneration (Final). Non-covalent immobilization of alpha-synuclein antibodies was performed using a target immobilization method of 2000 response units (RU).
(§4) Binding affinity of alpha-synuclein antibodies to monomeric or fibrillar alpha-synuclein species was performed using a single-cycle kinetics method. […] A dissociation phase of 900 sec followed the final 50 nM injection. Regeneration of the sensor to the goat anti-mouse antibody layer was achieved using 3 regenerations of 10 mM Glycine pH 1.7. […] Regeneration of the sensor to the goat anti-mouse antibody layer was achieved using 3 regenerations of 10 mM Glycine pH 1.7. Results obtained from single-cycle kinetics were evaluated by Biacore T200 evaluation software with 1:1 binding homogenous Langmuir model (with a global Rmax) with Cycle 5 as a blank subtraction. The following kinetic parameters were obtained: on-rate (ka), off-rate (kd), affinity constant (KD, ratio of kd by ka), maximum response (Rmax), and goodness of fit (Chi2).
(§5) Non-covalent capture of the alpha-synuclein antibodies was performed in three separate runs.

[5] = target: human full-length alpha-synuclein (human, UniProt P37840 1-140); experiment: SPR, mAb captured
Experimental: as §3, §4, §5

[6] = target: T3, 82-96aa; experiment: 15-mer peptide ELISA
T3 construct: also called alpha-synuclein peptide 82-96
T3 peptide: {Biotin-Ahx}-VEGAGSIAAATGFVK
Experimental: as §1, §2

[7] = target: T4, 91-105aa; experiment: 15-mer peptide ELISA
T4 construct: also called alpha-synuclein peptide 91-105
T4 peptide: {Biotin-Ahx}-ATGFVKKDQLGKNEE
Experimental: as §1, §2

[8] = target: T1, 1-15aa; experiment: 15-mer peptide ELISA
Experimental: as §1, §2

[9] = target: T5, 100-114aa; experiment: 15-mer peptide ELISA;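 note: indirect ELISA of hybridoma supernatant antibodies (1/100, 1 h) binding immobilized 15-mer peptides spanning human alpha-synuclein 1-140 on streptavidin plates, read as optical density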
T5 peptide: {Biotin-Ahx}-LGKNEEGAPQEGILE
Experimental: as §1, §2

[10] = target: T6, 109-123aa; experiment: 15-mer peptide ELISA;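 note: indirect ELISA of hybridoma supernatant antibodies (1/100, 1 h) binding immobilized 15-mer peptides spanning human alpha-synuclein 1-140 on streptavidin plates, read as optical density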
T6 peptide: {Biotin-Ahx}-QEGILEDMPVDPDNE
Experimental: as §1, §2

[11] = target: T3, 82-96aa; experiment: indirect ELISA on biotinylated 15-mer peptide (streptavidin plate), supernatant 1/100
Experimental: as §1, §2

- binding result [1]: binds
- binding result [2]: no binding (tested: supernatant 1/100)
- binding result [3]: no binding (tested: supernatant 1/100)
- Kd [4]: 9.5 nM
- koff [4]: 0.00013 s⁻¹
- kon [4]: 13700 M⁻¹ s⁻¹
- Kd [5]: 78.5 nM
- koff [5]: 0.106 s⁻¹
- kon [5]: 1.35e+06 M⁻¹ s⁻¹
- binding result [6]: no binding (tested: supernatant 1/100)
- binding result [7]: no binding (tested: supernatant 1/100)
B1: ACI-7088-4303B6-Ab2 (antibody, V domains shown)
VH: EVQLQQSGPELVKPGASVKISCKASGYTFTDYYMNWVKQSHGKSLEWIGDINPNNGGTTYNQKFKDKATLTVDRSSSTAYMELRSLTSGDSAVYYCARSGYSGSRLYYAMDYWSQGSSVTVSS
VL: DIVMSQSPSSLAVSAREKVTMSCKSSQSLLNSRTRKNYLAWYQQKPGQSPKLLIFWASTRESGVPDRFTGSGSGTDFTLTISSVQAEDLAVYYCKQSYDLWTFGGGTKLEIK
notes: mouse hybridoma mAb; tied by the hybridoma code 4303B6C11; also called ACI-7088-4303B6-Ab1; 4303B6C11

- binding result [2]: no binding (tested: supernatant 1/100)
- binding result [8]: no binding (tested: supernatant 1/100)
- Kd [4]: 48.7 nM
- koff [4]: 0.00874 s⁻¹
- kon [4]: 179000 M⁻¹ s⁻¹
- Kd [5]: 22.6 nM
- koff [5]: 5.58 s⁻¹
- kon [5]: 2.47e+08 M⁻¹ s⁻¹
- binding result [6]: no binding (tested: supernatant 1/100)
- binding result [7]: no binding (tested: supernatant 1/100)
B2: ACI-7089-4417G6-Ab1 (antibody, V domains shown)
VH: QVQLQQSGAELVRPGASVTLSCKASGYTFTGYEMHWVKQTPVHGLEWIGAIDPETGGTAYIQKFKGKATLTADKSSSTAYMELRSLTSEDSAVYYCTRGWDYFDYWGQGTTLTVSA
VL: DVVMTQTPLSLPVSLGDQASISCRSSQSLLHSNGFTYLHWYLQKPGQSPKLLIYRVSNRFSGVPDRFSGSGSGTDFTLKISRVEAEDLGVYFCSQSTHVPYTFGGGTKLEIK
notes: mouse hybridoma mAb; also called 4417G6B12

- binding result [9]: no binding (tested: supernatant 1/100)
- binding result [10]: no binding (tested: supernatant 1/100)
- binding result [11]: binds
B3: ACI-8033-8C10-Ab1 (antibody, V domains shown)
VH: DVQLQESGPGLVKPSQSLSLTCSVTGQSITSGYYWNWIRQFPGNKLEWMGYISNDGSSKTNPSLTNRISVTRDTSKNQVFLKLKSVTTEDTATYYCVRGDQHWGQGTALTVSS
VL: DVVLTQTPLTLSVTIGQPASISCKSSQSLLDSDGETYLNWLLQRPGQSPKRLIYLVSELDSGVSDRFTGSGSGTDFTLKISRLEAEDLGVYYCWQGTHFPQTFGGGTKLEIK
notes: mouse hybridoma mAb; also called 917.8C10C6G3
